Data: patent US20180327500A1 (SYMPHOGEN A S, published 2018)

What was measured:
Assay in all cases: flow cytometry on transfected HEK293 cells;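 also: antibodies applied at 50 µg/ml, binding called specific when fluorescence exceeds the mean signal on a negative control chicken or mouse MET construct plus four SD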
[1] = biological target: T1, Mouse Blade 1-7
T1 construct: human/mouse chimera on transfected HEK293 cells; also called AA 25-513
Method: (§1) Cut-off values defined as the average fluorescence signal of all antibodies tested at 50 μg/ml to the negative control chicken or mouse MET construct+four standard deviations were employed to discriminate background binding from specific binding for the domain exchange or blade exchange constructs.
T1 MET ECD-SV5-GPI fusion: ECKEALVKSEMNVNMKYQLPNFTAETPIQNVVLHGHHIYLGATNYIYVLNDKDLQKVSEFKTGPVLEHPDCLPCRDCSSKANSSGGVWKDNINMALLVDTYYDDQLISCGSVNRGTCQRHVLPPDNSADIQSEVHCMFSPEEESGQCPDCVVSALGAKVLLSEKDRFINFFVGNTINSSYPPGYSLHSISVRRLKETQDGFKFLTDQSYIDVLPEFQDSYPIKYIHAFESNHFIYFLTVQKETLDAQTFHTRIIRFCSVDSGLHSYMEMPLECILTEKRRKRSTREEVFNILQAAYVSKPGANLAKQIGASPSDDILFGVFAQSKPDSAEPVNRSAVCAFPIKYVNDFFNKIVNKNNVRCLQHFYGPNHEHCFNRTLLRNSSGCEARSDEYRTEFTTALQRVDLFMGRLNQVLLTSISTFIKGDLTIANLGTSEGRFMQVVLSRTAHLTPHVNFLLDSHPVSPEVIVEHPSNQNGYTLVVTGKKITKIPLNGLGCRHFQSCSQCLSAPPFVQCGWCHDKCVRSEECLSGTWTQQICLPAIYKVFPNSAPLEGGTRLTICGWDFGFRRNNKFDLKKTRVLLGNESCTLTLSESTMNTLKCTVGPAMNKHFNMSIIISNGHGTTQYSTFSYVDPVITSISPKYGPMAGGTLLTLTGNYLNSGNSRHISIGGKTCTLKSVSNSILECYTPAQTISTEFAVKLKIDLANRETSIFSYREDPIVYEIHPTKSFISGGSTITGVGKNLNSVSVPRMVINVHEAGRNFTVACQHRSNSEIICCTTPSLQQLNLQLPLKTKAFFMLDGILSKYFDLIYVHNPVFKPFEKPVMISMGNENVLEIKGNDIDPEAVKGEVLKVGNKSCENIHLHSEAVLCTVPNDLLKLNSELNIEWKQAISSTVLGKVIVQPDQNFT

[2] = biological target: T2, LS4
T2 construct: human/mouse chimera on transfected HEK293 cells; also called AA 25-371
Method: as §1
T2 MET ECD-SV5-GPI fusion: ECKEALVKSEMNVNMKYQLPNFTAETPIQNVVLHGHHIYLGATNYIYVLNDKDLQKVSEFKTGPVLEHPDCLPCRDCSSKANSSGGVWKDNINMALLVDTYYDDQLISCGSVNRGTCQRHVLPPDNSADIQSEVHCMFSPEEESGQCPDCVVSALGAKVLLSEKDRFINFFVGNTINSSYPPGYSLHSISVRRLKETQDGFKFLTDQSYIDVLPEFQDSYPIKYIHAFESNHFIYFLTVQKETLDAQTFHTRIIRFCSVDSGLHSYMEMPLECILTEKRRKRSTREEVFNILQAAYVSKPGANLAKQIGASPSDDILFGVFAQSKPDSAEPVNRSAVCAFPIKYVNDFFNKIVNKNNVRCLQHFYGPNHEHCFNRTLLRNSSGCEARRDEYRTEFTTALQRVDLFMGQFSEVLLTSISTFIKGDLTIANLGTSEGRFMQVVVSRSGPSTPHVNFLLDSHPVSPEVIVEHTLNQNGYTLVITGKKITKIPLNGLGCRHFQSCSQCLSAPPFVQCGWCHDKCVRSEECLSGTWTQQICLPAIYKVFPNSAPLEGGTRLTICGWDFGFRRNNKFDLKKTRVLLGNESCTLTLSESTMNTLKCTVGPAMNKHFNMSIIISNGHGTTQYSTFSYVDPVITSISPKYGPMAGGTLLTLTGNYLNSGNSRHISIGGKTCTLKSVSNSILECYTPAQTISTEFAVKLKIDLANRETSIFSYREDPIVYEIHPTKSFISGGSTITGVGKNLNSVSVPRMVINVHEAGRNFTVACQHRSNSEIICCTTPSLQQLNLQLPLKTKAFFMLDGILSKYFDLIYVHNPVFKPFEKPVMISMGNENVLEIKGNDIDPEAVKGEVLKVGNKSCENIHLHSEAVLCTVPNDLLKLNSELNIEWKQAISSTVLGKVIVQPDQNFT

[3] = biological target: T3, Mouse MET
T3 construct: on transfected HEK293 cells; also called murine MET ECD-SV5-GPI
Method: as §1
T3 MET ECD-SV5-GPI fusion: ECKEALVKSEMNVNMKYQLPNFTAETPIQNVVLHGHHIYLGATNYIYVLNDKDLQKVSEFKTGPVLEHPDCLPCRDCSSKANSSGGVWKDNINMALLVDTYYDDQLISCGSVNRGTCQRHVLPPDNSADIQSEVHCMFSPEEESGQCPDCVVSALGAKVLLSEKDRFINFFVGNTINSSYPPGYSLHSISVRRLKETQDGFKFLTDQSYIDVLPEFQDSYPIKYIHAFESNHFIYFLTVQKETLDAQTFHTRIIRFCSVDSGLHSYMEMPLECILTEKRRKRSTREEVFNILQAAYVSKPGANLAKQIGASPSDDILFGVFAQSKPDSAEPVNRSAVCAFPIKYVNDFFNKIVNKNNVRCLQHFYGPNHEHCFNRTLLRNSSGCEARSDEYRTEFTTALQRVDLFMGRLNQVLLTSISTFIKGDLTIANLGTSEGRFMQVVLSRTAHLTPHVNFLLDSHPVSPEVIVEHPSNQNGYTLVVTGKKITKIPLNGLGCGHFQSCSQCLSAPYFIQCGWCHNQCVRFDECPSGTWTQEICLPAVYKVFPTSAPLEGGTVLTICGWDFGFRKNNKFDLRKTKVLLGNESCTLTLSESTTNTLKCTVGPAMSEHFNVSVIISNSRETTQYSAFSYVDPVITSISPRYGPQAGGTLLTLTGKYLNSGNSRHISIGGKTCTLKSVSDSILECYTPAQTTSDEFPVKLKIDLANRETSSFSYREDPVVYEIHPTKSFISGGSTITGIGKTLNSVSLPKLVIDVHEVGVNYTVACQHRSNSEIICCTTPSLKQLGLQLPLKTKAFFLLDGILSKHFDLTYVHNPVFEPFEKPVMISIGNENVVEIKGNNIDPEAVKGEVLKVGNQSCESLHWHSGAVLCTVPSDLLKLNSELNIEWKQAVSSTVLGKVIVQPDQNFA

Measured: binding result

B1: humanized antibody 9338 (antibody, human IgG1, kappa, V domains shown)
VH: QVQLVQSGAEVKKPGSSVKVSCKASGYTFTSYWMHWVRQAPGQGLEWMGYINPSSGHIENNQKFKDRVTITADKSTSTAYMELSSLRSEDTAVYYCARGRFAYWGQGTLVTVSS
VL: EIVLTQSPATLSLSPGERATLSCSASSSVSSGYLYWYQQKPGQAPRLLIYSTSNLASGIPARFSGSGSGTDFTLTISSLEPEDFAVYYCHQWSSYPFTFGSGTKLEIKR
notes: also called Hu9338; hu9338
no binding (tested: 50 µg/ml): all assays above

B2: humanized antibody 9006 (antibody, human IgG1, kappa, V domains shown)
VH: QVQLVQSGSELKKPGASVKVSCKASGYTFTNFRMNWVKQAPGQGLKWMGWINTYTGEPTYVDDLKGRFVFSLDTSVSTAYLQISSLKAEDTAVYYCARKGIARAMDYWGQGTTVTVSS
VL: DIVMTQSPDSLAVSLGERATINCKSSQSLLDSGNQKNYLAWYQQKPGQPPKLLIFGASTRESGVPDRFSGSGSGTDFTLTISSLQAEDVAVYYCQNDHSYPYTFGQGTKLEIKR
notes: also called Hu9006; hu9006
no binding (tested: 50 µg/ml): all assays above
